Test results taken from patent publication US20200157151A1, “PEPTIDE COMPOUNDS, CONJUGATE COMPOUNDS AND USES THEREOF FOR TREATING INFLAMMATORY DISEASES” (TRANSFERT PLUS, S.E.C., priority 2017, published 2020).
Square brackets hold non-standard residues; d marks the D form. Ends that are not written are not given here. Nle = CCCC[C@H](N)C(=O)O

B1: KBP-106 (peptide)
peptide: Ac-GVRAKAGVRN[Nle]FKSESY
B2: KBP-201 (peptide)
peptide: YKSLRRKAPRWDAPLRDPALRQLL
modifications: not checked

Biological target: Human recombinant Sortilin chimera protein from R&D Systems (#3154-ST) (human), Q99523
Sequence (Q99523 78-755, change not shown): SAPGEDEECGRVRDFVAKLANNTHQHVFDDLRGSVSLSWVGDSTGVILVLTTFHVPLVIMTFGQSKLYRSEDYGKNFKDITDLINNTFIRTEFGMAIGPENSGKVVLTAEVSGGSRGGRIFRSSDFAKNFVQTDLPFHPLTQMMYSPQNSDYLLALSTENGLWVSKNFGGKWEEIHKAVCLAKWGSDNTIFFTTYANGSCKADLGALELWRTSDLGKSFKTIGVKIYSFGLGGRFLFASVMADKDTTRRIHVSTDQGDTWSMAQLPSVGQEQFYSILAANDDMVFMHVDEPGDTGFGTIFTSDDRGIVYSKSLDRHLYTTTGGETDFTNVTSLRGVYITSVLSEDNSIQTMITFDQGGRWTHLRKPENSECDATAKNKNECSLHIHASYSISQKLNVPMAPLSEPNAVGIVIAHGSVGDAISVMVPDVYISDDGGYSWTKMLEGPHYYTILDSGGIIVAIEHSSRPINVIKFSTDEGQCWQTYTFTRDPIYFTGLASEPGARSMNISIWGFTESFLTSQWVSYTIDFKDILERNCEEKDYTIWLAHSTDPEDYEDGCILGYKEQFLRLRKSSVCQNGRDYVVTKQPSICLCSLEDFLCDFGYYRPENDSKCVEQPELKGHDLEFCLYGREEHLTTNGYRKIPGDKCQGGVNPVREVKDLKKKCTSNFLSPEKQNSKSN
Test: SPR (Biacore), Sortilin immobilized on CM5 chip, peptide injected

Binder | Kd [nM]
B1 | 46
B2 | 3.3
